Test results from article doi:10.1101/2022.05.18.492403 (bioRxiv, 2022).

B1: truncated C-terminal StrepII-tagged ScSbtB protein (SbtB-Δ104) (domain or fragment, Synechocystis sp. PCC 6803, UniProt P73954 1-104, looked up)
chain: MAKPANKLVIVTEKILLKKIAKIIDESGAKGYTVMNTGGKGSRNVRSSGQPNTSDIEANIKFEILTETREMAEEIADRVAVKYFNDYAGIIYICSAEVLYGHTF
B2: C-terminal StrepII-tagged ScSbtB C105A+C110A variant (natural protein, Synechocystis sp. PCC 6803)
chain: MAKPANKLVIVTEKILLKKIAKIIDESGAKGYTVMNTGGKGSRNVRSSGQPNTSDIEANIKFEILTETREMAEEIADRVAVKYFNDYAGIIYICSAEVLYGHTFAGPEGA

Molecular target: the molecule itself
Assay: crystal structure

Protein	stoichiometry N
B1	3
B2	3
